Measurements reported in patent US20220356235A1 (STICHTING SANQUIN BLOEDVOORZIENING, published 2022).

Assays:
[1] = target: T1, recombinant human FH fragment CCP 18-20 (human, UniProt P08603 1046-1231); experiment: SPR (Biacore T200), mAb captured on ProtA or ProtG chip, FH CCP18-20 flowed over, 1:1 model
T1 construct: domain: CCP 18-20; also called fragment of FH comprised of domain 18-20
T1 sequence (looked up): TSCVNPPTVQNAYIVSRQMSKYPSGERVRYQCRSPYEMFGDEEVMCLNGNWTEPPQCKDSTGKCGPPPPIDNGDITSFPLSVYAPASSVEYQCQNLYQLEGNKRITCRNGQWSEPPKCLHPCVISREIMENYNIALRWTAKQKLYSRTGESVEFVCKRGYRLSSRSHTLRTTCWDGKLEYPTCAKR
Experimental: (§1) Surface plasmon resonance (SPR) experiments were performed using a BiaCore T200 (GE Healthcare) and CM5 sensor chips (GE Healthcare) in accordance with the manufacturer's instructions. In short, to determine its affinity, anti-FH.07, anti-FHR-1 3B4 or anti-FHR-1 8E4 were captured onto a ProtA or ProtG coupled chip and either full length FH or a fragment of FH comprising domain 18-20 was flown over the captured moAB at decreasing concentrations.

[2] = target: T1, recombinant human FH fragment CCP 18-20; experiment: SPR, mAb captured, FH CCP18-20 flowed over (fuller figure of the value rounded to 0.03 × 10^-9 in Table 2)
Experimental: as §1

[3] = target: T2, human factor H, full length (human, UniProt P08603 19-1231); experiment: SPR (Biacore T200), mAb captured on ProtA or ProtG chip, full length FH flowed over, 1:1 model
T2 construct: mature; In the serum assays (C3b deposition, hemolysis) the FH is that of normal human serum; also called FH; full length FH
Experimental: as §1

[4] = target: T3, recombinant human FH fragment CCP 19-20 (human, UniProt P08603 1107-1231); experiment: competition ELISA: mAb captured on RM-19 coated plate, FH-bt mixed with unlabelled CCP 19-20
T3 construct: domain: CCP 19-20
T3 sequence (looked up): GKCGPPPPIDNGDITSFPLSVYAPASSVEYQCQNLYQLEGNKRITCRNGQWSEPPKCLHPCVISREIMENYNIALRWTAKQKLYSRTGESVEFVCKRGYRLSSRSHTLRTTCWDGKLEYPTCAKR
Experimental: The location of the epitope of anti-FHR-1 mAbs was determined using recombinant human FH fragments composed of multiple CCP domains (15-18, 15-19, 18-20 or 19-20). In short, anti-FHR-1 mAbs were captured on a RM-19 coated microtiterplate to assure optimal binding conformation. Next, biotinylated FH, mixed with a 100-fold higher concentration of the indicated unlabeled recombinant FH-fragments, was incubated on the plate for 1 hour. Binding of biotinylated FH was determined by incubation with 0.01% (v/v) streptavidin conjugated with poly-HRP, in HPE for 30 min. The ELISA was further developed as described above. To determine whether the anti-FHR-1 mAbs competed with anti-FH.07 for the binding of FH, a similar set-up was used. In short, mAbs were directly coated to the plate and binding of biotinylated FH (FH-bt) in the absence or presence of a 10-fold higher concentration of indicated mAbs was assessed by ELISA as described above.

[5] = target: T2, human factor H, full length; experiment: cell-based or functional assay

Kd [1]: 0.03 nM | koff [1]: 4.96e-05 s⁻¹ | kon [1]: 1.58e+06 M⁻¹ s⁻¹ | Kd [2]: 0.0313 nM | Kd [3]: 10.4 nM | koff [3]: 9.39e-05 s⁻¹ | kon [3]: 9000 M⁻¹ s⁻¹ | binding result [4]: no binding | IC50 (nM), LPS C3b dep. assay [5]: 26.3 nM
B1: anti-FHR-1.8E4 (antibody, V domains shown)
VH: QVQLKQSGPGLVQPSQSLSITCTVSDFSLTNSGVHWVRQSPGKGLEWLGVIWSGGTTEYNAAFMSRLTITKDNSKSQVFFKMNSLLVDDTGIYYCARNFGNYAVDYWGQGTSVTVSS
VL: QIVLSQSPAILSASPGEKVTMTCRASSSVRYMHWYQQKAGSSPTAWIFATSNLASGVPPRFSGSGSGTSYSLTISRVEAEDAATYYCQQWGTKPPTFGAGTKLELK
notes: Mouse monoclonal from a hybridoma, raised against recombinant human FHR-1; also called aFHR-1 8E4
IC50 (nM), Hemolytic assay [5]: 128 nM
